Assay [1] has as its target rabbit APOBEC3A fused to Cherry (rA3A-Cherry) (rabbit). As to the kind of experiment: FRET or BRET; flow cytometry-based FRET (FRET-FACS); HEK-293T cells 48 hours after co-transfection of a Cherry-fusion and a GFP-fusion plasmid; percentage of FRET+ cells gated on Cherry+ and GFP+ cells. On the technique in general: Bioluminescence resonance energy transfer reports proximity on the nanometre scale.

Assay [2] concerns the target rabbit TRIB3 pseudokinase fused to GFP (rTRIB3-GFP) (rabbit). The description is as above.

Consider “rabbit APOBEC3A fused to Cherry (rA3A-Cherry) (enzyme)”, for which the figures for the percentage of fluorescent cells in the FRET channel in assay [1] and in assay [2] were 19% and 11%, respectively.

The values above are taken from paper PMC6021247.
